The text below walks through data of US20120064065A1 (AC IMMUNE S A, published 2012).

One experiment addresses T1, murine Aβ1-42 peptide (murine, UniProt P12023 672-713).
T1 construct: domain: Aβ1-42
T1 peptide (looked up): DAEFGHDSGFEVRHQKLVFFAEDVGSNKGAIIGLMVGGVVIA
As to the kind of experiment: Aβ ELISA. For orientation: An ELISA detects its analyte on a solid surface through an enzyme-linked reagent.

Experiment [1] concerns the target T2, human FcγRIIIa-V158, extracellular domain with C-terminal Gly/6xHis/GST tag (human, UniProt P08637 17-208).
T2 construct: extracellular domain; Made by Genentech; captured on the plate through an anti-GST antibody; V158 is the allotype as printed; not shown: Gly/6xHis/glutathione S transferase (GST) polypeptide tag at the C terminus
Kind of experiment: ELISA, cross-linked antibody on anti-GST-captured FcγRIIIa-V158.

T2 sequence (P08637 17-208 F176V): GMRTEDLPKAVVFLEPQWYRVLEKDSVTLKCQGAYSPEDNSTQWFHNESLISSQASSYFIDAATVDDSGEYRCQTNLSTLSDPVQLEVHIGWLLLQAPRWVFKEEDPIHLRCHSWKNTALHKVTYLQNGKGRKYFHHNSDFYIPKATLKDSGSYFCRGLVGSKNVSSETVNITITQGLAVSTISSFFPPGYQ

B1: MABT humanized anti-Aβ IgG4 monoclonal antibody (antibody)
heavy: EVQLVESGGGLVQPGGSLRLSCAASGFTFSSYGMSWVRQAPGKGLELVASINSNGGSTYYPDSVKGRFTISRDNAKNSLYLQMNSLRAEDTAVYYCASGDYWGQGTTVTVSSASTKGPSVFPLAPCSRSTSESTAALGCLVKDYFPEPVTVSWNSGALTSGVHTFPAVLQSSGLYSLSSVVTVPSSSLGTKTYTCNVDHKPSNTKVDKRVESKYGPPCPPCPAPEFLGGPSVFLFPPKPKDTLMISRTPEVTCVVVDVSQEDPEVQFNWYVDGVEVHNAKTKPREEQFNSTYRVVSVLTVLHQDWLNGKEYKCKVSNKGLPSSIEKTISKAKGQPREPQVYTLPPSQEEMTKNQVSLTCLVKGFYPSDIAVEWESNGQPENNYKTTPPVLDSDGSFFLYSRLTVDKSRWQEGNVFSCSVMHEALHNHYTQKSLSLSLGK
light: DIVMTQSPLSLPVTPGEPASISCRSSQSLVYSNGDTYLHWYLQKPGQSPQLLIYKVSNRFSGVPDRFSGSGSGTDFTLKISRVEAEDVGVYYCSQSTHVPWTFGQGTKVEIKRTVAAPSVFIFPPSDEQLKSGTASVVCLLNNFYPREAKVQWKVDNALQSGNSQESVTEQDSKDSTYSLSSTLTLSKADYEKHKVYACEVTHQGLSSPVTKSFNRGEC
notes: also called anti-Aβ MABT; MABT IgG4
B1: the binding result (with murine Aβ1-42 peptide; in experiment [1]) was “binds” throughout.
